According to article PMC5322959:

Biological target: His6x-tagged hRNF145 RING protein (human) (UniProt Q96MT1)
Assay: SEC; Superdex 75 10/300 column calibrated with a set of standard proteins; elution volume corresponds to an apparent molecular mass of 39 kDa (predicted weight 18 kD)

stoichiometry N: 2
Substance: His6x-tagged hRNF145 RING protein (from UniProt Q96MT1-1 550-663) (domain or fragment)
